The record followed here is patent publication US20130029395.

This data set addresses octadecenoyl-ACP.

B1: Synechococcus elongatus PCC7942 YP-400611 (Synpcc7942-1594) protein with C-terminal His-tag (protein)
chain: MFGLIGHLTSLEQARDVSRRMGYDEYADQGLEFWSSAPPQIVDEITVTSATGKVIHGRYIESCFLPEMLAARRFKTATRKVLNAMSHAQKHGIDISALGGFTSIIFENFDLASLRQVRDTTLEFERFTTGNTHTAYVICRQVEAAAKTLGIDITQATVAVVGATGDIGSAVCRWLDLKLGVGDLILTARNQERLDNLQAELGRGKILPLEAALPEADFIVWVASMPQGVVIDPATLKQPCVLIDGGYPKNLGSKVQGEGIYVLNGGVVEHCFDIDWQIMSAAEMARPERQMFACFAEAMLLEFEGWHTNFSWGRNQITIEKMEAIGEASVRHGFQPLALAI
Take B1: the “Km for the reduction of octadecenoyl-ACP in the presence of 2 mM NADPH” value amounted to 7.8 ± 2 µM.
